Measurements: the Human Domainome abundance scans (Beltran et al. 2025)
± gives the uncertainty stated by the source.

B1: Far upstream element-binding protein 2, residues 142 to 214; numbered along this chain, Q92945 (parent)
chain: RTSMTEEYRVPDGMVGLIIGRGGEQINKIQQDSGCKVQISPDSGGLPERSVSLTGAPESVQKAKMMLDDIVSR

Variants of: B1
Experiment: abundance fitness (aPCA) (normalised: wild type 0, dead -1); higher = more abundant; growth selection in yeast, the domain comes from the species named
Conditions: Homo sapiens

| Variant | abundance fitness |
| --- | --- |
| RTSMTEEYRVPDGMVGLIIGRGGEQINKIQQDSGVKVQISPDSGGLPERSVSLTGAPESVQKAKMMLDDIVSR [C35V] | -0.209 ± 0.043 |
| RTSMTEEYRVPDGMVGLIIGRGGEQINKIQQDSGIKVQISPDSGGLPERSVSLTGAPESVQKAKMMLDDIVSR [C35I] | -0.786 ± 0.16 |
| RTSMTEEYRVPDGMVGLIIGRGGEQINKIQQDSGMKVQISPDSGGLPERSVSLTGAPESVQKAKMMLDDIVSR [C35M] | -0.866 ± 0.082 |
| RTSMTEEYRVPDGMVGLIIGRGGEQINKIQQDSGAKVQISPDSGGLPERSVSLTGAPESVQKAKMMLDDIVSR [C35A] | -0.029 ± 0.046 |
| RTSMTEEYRVPDGMVGLIIGRGGEQINKIQQDSGKKVQISPDSGGLPERSVSLTGAPESVQKAKMMLDDIVSR [C35K] | -0.545 ± 0.071 |
| RTSMTEEYRVPDGMVGLIIGRGGEQINKIQQDSGHKVQISPDSGGLPERSVSLTGAPESVQKAKMMLDDIVSR [C35H] | -0.917 ± 0.13 |
| RTSMTEEYRVPDGMVGLIIGRGGEQINKIQQDSGFKVQISPDSGGLPERSVSLTGAPESVQKAKMMLDDIVSR [C35F] | -1.15 ± 0.18 |
| RTSMTEEYRVPDGMVGLIIGRGGEQINKIQQDSGTKVQISPDSGGLPERSVSLTGAPESVQKAKMMLDDIVSR [C35T] | -0.406 ± 0.058 |
| RTSMTEEYRVPDGMVGLIIGRGGEQINKIQQDSGLKVQISPDSGGLPERSVSLTGAPESVQKAKMMLDDIVSR [C35L] | -0.787 ± 0.06 |
| RTSMTEEYRVPDGMVGLIIGRGGEQINKIQQDSGDKVQISPDSGGLPERSVSLTGAPESVQKAKMMLDDIVSR [C35D] | -0.564 ± 0.079 |
| RTSMTEEYRVPDGMVGLIIGRGGEQINKIQQDSGNKVQISPDSGGLPERSVSLTGAPESVQKAKMMLDDIVSR [C35N] | -0.914 ± 0.14 |
| RTSMTEEYRVPDGMVGLIIGRGGEQINKIQQDSGQKVQISPDSGGLPERSVSLTGAPESVQKAKMMLDDIVSR [C35Q] | -0.791 ± 0.087 |
| RTSMTEEYRVPDGMVGLIIGRGGEQINKIQQDSGRKVQISPDSGGLPERSVSLTGAPESVQKAKMMLDDIVSR [C35R] | -0.848 ± 0.045 |
| RTSMTEEYRVPDGMVGLIIGRGGEQINKIQQDSGEKVQISPDSGGLPERSVSLTGAPESVQKAKMMLDDIVSR [C35E] | -0.563 ± 0.054 |
| RTSMTEEYRVPDGMVGLIIGRGGEQINKIQQDSGGKVQISPDSGGLPERSVSLTGAPESVQKAKMMLDDIVSR [C35G] | -0.756 ± 0.042 |
| RTSMTEEYRVPDGMVGLIIGRGGEQINKIQQDSGYKVQISPDSGGLPERSVSLTGAPESVQKAKMMLDDIVSR [C35Y] | -0.847 ± 0.12 |
| RTSMTEEYRVPDGMVGLIIGRGGEQINKIQQDSGWKVQISPDSGGLPERSVSLTGAPESVQKAKMMLDDIVSR [C35W] | -1.19 ± 0.069 |
| RTSMTEEYRVPDGMVGLIIGRGGEQINKIQQDSGPKVQISPDSGGLPERSVSLTGAPESVQKAKMMLDDIVSR [C35P] | -0.658 ± 0.068 |
| RTSMTEEYRVPDGMVGLIIGRGGEQINKIQQDLGCKVQISPDSGGLPERSVSLTGAPESVQKAKMMLDDIVSR [S33L] | -0.575 ± 0.055 |

| Variant | abundance fitness |
| --- | --- |
| RTSMTEEYRVPDGMVGLIIGRGGEQINKIQQDIGCKVQISPDSGGLPERSVSLTGAPESVQKAKMMLDDIVSR [S33I] | -0.452 ± 0.13 |
| RTSMTEEYRVPDGMVGLIIGRGGEQINKIQQDNGCKVQISPDSGGLPERSVSLTGAPESVQKAKMMLDDIVSR [S33N] | -0.897 ± 0.15 |
| RTSMTEEYRVPDGMVGLIIGRGGEQINKIQQDFGCKVQISPDSGGLPERSVSLTGAPESVQKAKMMLDDIVSR [S33F] | -0.474 ± 0.092 |
| RTSMTEEYRVPDGMVGLIIGRGGEQINKIQQDEGCKVQISPDSGGLPERSVSLTGAPESVQKAKMMLDDIVSR [S33E] | -0.854 ± 0.061 |
| RTSMTEEYRVPDGMVGLIIGRGGEQINKIQQDCGCKVQISPDSGGLPERSVSLTGAPESVQKAKMMLDDIVSR [S33C] | -0.053 ± 0.061 |
| RTSMTEEYRVPDGMVGLIIGRGGEQINKIQQDYGCKVQISPDSGGLPERSVSLTGAPESVQKAKMMLDDIVSR [S33Y] | -0.55 ± 0.097 |
| RTSMTEEYRVPDGMVGLIIGRGGEQINKIQQDRGCKVQISPDSGGLPERSVSLTGAPESVQKAKMMLDDIVSR [S33R] | -1.06 ± 0.056 |
| RTSMTEEYRVPDGMVGLIIGRGGEQINKIQQDVGCKVQISPDSGGLPERSVSLTGAPESVQKAKMMLDDIVSR [S33V] | -0.714 ± 0.053 |
| RTSMTEEYRVPDGMVGLIIGRGGEQINKIQQDMGCKVQISPDSGGLPERSVSLTGAPESVQKAKMMLDDIVSR [S33M] | -0.806 ± 0.086 |
| RTSMTEEYRVPDGMVGLIIGRGGEQINKIQQDHGCKVQISPDSGGLPERSVSLTGAPESVQKAKMMLDDIVSR [S33H] | -0.854 ± 0.11 |
| RTSMTEEYRVPDGMVGLIIGRGGEQINKIQQDAGCKVQISPDSGGLPERSVSLTGAPESVQKAKMMLDDIVSR [S33A] | -0.138 ± 0.044 |
| RTSMTEEYRVPDGMVGLIIGRGGEQINKIQQDGGCKVQISPDSGGLPERSVSLTGAPESVQKAKMMLDDIVSR [S33G] | -0.861 ± 0.049 |
| RTSMTEEYRVPDGMVGLIIGRGGEQINKIQQDPGCKVQISPDSGGLPERSVSLTGAPESVQKAKMMLDDIVSR [S33P] | -1.01 ± 0.075 |
| RTSMTEEYRVPDGMVGLIIGRGGEQINKIQQDWGCKVQISPDSGGLPERSVSLTGAPESVQKAKMMLDDIVSR [S33W] | -1.09 ± 0.08 |
| RTSMTEEYRVPDGMVGLIIGRGGEQINKIQQDTGCKVQISPDSGGLPERSVSLTGAPESVQKAKMMLDDIVSR [S33T] | -0.006 ± 0.055 |
| RTSMTEEYRVPDGMVGLIIGRGGEQINKIQQDDGCKVQISPDSGGLPERSVSLTGAPESVQKAKMMLDDIVSR [S33D] | -0.916 ± 0.096 |
| RTSMTEEYRVPDGMVGLIIGRGGEQINKIQQDSGCAVQISPDSGGLPERSVSLTGAPESVQKAKMMLDDIVSR [K36A] | -0.082 ± 0.045 |
| RTSMTEEYRVPDGMVGLIIGRGGEQINKIQQDSGCCVQISPDSGGLPERSVSLTGAPESVQKAKMMLDDIVSR [K36C] | -0.182 ± 0.059 |
